T1: HTRA4, P83105
T1 sequence (P83105 378-476, limits assumed, looked up): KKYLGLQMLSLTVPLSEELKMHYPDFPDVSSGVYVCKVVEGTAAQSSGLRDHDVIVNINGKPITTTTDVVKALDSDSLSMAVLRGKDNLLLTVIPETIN

T2: FRMPD1, Q5SYB0
T2 sequence (Q5SYB0 52-145, limits assumed, looked up): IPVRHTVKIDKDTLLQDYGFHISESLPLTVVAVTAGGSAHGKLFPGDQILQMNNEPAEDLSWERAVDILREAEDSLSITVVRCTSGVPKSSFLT

T3: SNTG2, Q9NY99
T3 sequence (Q9NY99 68-166, limits assumed, looked up): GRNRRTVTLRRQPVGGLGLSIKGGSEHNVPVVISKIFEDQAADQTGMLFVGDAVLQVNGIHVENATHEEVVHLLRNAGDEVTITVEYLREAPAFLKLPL

T4: SNTB1, Q13884
T4 sequence (Q13884 107-205, limits assumed, looked up): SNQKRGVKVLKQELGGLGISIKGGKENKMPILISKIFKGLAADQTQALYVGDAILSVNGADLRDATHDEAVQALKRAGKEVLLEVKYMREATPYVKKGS

T5: NHERF3_4, Q5T2W1
T5 sequence (Q5T2W1 373-468, limits assumed, looked up): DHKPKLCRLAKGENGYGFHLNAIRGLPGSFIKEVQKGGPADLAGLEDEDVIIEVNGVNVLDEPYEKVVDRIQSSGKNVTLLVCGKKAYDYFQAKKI

T6: MPDZ_5, O75970
T6 sequence (O75970 695-796, limits assumed, looked up): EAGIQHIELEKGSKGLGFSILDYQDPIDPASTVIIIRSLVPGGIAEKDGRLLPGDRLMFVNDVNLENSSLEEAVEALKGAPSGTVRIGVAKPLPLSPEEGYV

T7: PTPN13_1, Q12923
T7 sequence (Q12923 1088-1188, limits assumed, looked up): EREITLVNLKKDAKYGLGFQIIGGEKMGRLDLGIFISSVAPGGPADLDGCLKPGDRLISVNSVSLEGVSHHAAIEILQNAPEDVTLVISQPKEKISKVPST

T8: MPP2, Q14168
T8 sequence (Q14168 180-250, limits assumed, looked up): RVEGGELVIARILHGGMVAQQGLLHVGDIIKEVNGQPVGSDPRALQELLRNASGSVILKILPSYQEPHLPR

T9: LRRC7, Q96NW7
T9 sequence (Q96NW7 1440-1537, limits assumed, looked up): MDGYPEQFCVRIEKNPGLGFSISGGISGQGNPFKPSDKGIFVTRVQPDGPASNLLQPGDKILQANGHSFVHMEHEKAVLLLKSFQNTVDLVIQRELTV

T10: SIPA1L2, Q9P2F8
T10 sequence (Q9P2F8 945-1036, limits assumed, looked up): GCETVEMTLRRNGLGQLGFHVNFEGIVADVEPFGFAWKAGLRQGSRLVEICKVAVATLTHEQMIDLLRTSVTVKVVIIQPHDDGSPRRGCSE

T11: CARD11, Q9BXL7
T11 sequence (Q9BXL7 662-765, limits assumed, looked up): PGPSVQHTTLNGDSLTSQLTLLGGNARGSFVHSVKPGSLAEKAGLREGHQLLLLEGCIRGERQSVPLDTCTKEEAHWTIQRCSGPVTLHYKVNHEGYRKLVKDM


Assays:
Assay in all cases: holdup assay
Set-up in all cases: key: below the threshold = too weak to quantify, mostly under pKd 3.1 to 4
Conditions in all cases: plain residues with an end cap or a label only (N-terminal biotin on a linker: ado-ado)
[1] = molecular target: T1, HTRA4, P83105
[2] = molecular target: DLG4_3, P78352
[3] = molecular target: DLG1_2, Q12959
[4] = molecular target: T2, FRMPD1, Q5SYB0
[5] = molecular target: MAGI3_2, Q5TCQ9
[6] = molecular target: NHERF4_1, Q86UT5-2
[7] = molecular target: Inadl_5, Q8NI35
[8] = molecular target: HTRA1, Q92743
[9] = molecular target: T3, SNTG2, Q9NY99
[10] = molecular target: T4, SNTB1, Q13884
[11] = molecular target: T5, NHERF3_4, Q5T2W1
[12] = molecular target: Inadl_1, Q8NI35
[13] = molecular target: FRMPD2_2, Q68DX3
[14] = molecular target: T6, MPDZ_5, O75970
[15] = molecular target: T7, PTPN13_1, Q12923
[16] = molecular target: T8, MPP2, Q14168
[17] = molecular target: GRASP, Q7Z6J2
[18] = molecular target: T9, LRRC7, Q96NW7
[19] = molecular target: TJP1_3, Q07157
[20] = molecular target: LAP2, Q96RT1
[21] = molecular target: DLG4_2, P78352
[22] = molecular target: PICK1, Q9NRD5
[23] = molecular target: GRIP2_3, Q9C0E4
[24] = molecular target: NHERF2_2, Q15599
[25] = molecular target: T10, SIPA1L2, Q9P2F8
[26] = molecular target: T11, CARD11, Q9BXL7

Chain of LAP2, Q96RT1 (Q96RT1 other isoform, or with tags, fused parts or gaps): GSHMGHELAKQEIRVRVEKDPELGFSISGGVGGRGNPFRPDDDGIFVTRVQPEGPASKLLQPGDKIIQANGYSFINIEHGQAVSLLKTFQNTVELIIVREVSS
Chain of Inadl_5, Q8NI35 (Q8NI35 673-780): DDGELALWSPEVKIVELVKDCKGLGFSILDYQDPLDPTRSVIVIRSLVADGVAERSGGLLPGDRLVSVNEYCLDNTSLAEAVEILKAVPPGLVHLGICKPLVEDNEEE
Chain of HTRA1, Q92743 (Q92743 360-477): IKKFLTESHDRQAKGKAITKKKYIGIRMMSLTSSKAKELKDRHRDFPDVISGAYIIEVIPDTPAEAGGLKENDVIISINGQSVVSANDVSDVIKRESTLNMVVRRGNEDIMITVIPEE
Chain of GRASP, Q7Z6J2 (Q7Z6J2 96-193): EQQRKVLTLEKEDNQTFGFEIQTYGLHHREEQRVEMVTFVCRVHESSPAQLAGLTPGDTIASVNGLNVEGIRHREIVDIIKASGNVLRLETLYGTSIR
Chain of TJP1_3, Q07157 (Q07157 416-512): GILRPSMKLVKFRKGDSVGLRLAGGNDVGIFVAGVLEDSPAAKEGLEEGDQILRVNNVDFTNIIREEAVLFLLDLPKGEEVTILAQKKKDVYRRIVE
Chain of NHERF4_1, Q86UT5-2 (Q86UT5 other isoform, or with tags, fused parts or gaps): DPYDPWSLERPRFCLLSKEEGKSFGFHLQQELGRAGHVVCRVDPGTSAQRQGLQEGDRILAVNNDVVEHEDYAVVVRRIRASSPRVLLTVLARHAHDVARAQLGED
Chain of DLG1_2, Q12959 (Q12959 314-412): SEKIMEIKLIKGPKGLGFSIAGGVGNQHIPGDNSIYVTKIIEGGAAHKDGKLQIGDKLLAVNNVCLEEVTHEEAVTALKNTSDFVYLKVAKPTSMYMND
Chain of MAGI3_2, Q5TCQ9 (Q5TCQ9 398-503): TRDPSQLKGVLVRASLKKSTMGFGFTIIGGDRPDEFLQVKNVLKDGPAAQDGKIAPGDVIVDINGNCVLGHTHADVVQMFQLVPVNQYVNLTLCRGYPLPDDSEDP
Chain of DLG4_3, P78352 (P78352 306-403): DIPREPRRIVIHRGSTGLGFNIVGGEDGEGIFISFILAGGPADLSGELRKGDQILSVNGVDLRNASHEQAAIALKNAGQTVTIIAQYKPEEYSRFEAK
Chain of PICK1, Q9NRD5 (Q9NRD5 17-115): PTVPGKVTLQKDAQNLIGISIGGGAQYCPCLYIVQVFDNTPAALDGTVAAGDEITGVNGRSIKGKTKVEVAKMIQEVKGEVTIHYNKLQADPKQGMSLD
Chain of GRIP2_3, Q9C0E4 (Q9C0E4 238-339): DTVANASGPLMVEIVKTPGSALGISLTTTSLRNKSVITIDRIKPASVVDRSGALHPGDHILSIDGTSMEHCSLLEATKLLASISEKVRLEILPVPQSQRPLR
Chain of Inadl_1, Q8NI35 (Q8NI35 113-229): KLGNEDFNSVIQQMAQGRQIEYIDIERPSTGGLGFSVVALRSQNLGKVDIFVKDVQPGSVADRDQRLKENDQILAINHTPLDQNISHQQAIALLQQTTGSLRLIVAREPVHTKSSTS
Chain of NHERF2_2, Q15599 (Q15599 142-238): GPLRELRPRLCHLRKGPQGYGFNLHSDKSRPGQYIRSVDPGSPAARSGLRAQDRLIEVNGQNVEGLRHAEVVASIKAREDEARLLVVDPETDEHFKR
Chain of FRMPD2_2, Q68DX3 (Q68DX3 944-1038): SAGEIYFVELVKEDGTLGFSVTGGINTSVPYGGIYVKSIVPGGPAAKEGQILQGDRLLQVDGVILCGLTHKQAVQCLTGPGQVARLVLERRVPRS
Chain of DLG4_2, P78352 (P78352 155-259): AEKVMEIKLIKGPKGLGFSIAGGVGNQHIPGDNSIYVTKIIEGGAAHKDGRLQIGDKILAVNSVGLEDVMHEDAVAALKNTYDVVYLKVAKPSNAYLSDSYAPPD

| Binder | pKd [1] | pKd [2] | pKd [3] | pKd [4] | pKd [5] | pKd [6] | pKd [7] | pKd [8] | pKd [9] | pKd [10] | pKd [11] | pKd [12] | pKd [13] | pKd [14] | pKd [15] | pKd [16] | pKd [17] | pKd [18] | pKd [19] | pKd [20] | further results |
| --- | --- | --- | --- | --- | --- | --- | --- | --- | --- | --- | --- | --- | --- | --- | --- | --- | --- | --- | --- | --- | --- |
| LTAQEQPVYI [APBA1, Q02410] | 4.89 | below the threshold | below the threshold | below the threshold | below the threshold | below the threshold | 3.86 | 5.07 | below the threshold | below the threshold | below the threshold | below the threshold | below the threshold | 3.52 | below the threshold | below the threshold | below the threshold | below the threshold | below the threshold | below the threshold | pKd [21]: below the threshold; pKd [22]: below the threshold; pKd [23]: below the threshold; pKd [24]: below the threshold; pKd [25]: below the threshold; pKd [26]: below the threshold |
| RQSILFSTEV [BCR, P11274] | 4.82 | 3.7 | 4.85 | below the threshold | 4.13 | 3.68 | 3.49 | 4.47 | 4.1 | 4.46 | 4.37 | 3.88 | 4.12 | below the threshold | below the threshold | below the threshold | 5.04 | 3.88 | below the threshold | 4.39 | pKd [21]: 4.81; pKd [22]: below the threshold; pKd [23]: 3.69; pKd [24]: below the threshold; pKd [25]: below the threshold; pKd [26]: below the threshold |
| PLDSQQHTEV [FAT1, Q14517] | 4.26 | below the threshold | 4.99 | below the threshold | 3.71 | below the threshold | below the threshold | 4 | 3.67 | 4.32 | below the threshold | below the threshold | 3.73 | below the threshold | below the threshold | below the threshold | 4.34 | below the threshold | below the threshold | 3.61 | pKd [21]: 4.8; pKd [22]: below the threshold; pKd [23]: below the threshold; pKd [24]: below the threshold; pKd [25]: below the threshold; pKd [26]: below the threshold |

More lines, main results first:

| pKd [1] | pKd [2] | pKd [3] | pKd [4] | pKd [5] | pKd [6] | pKd [7] | pKd [8] | pKd [9] | pKd [10] | pKd [11] | pKd [12] | pKd [13] | pKd [14] | pKd [15] | pKd [16] | pKd [17] | pKd [18] | pKd [19] | pKd [20] | Binder | further results |
| --- | --- | --- | --- | --- | --- | --- | --- | --- | --- | --- | --- | --- | --- | --- | --- | --- | --- | --- | --- | --- | --- |
| below the threshold | below the threshold | 4.04 | below the threshold | 3.84 | 3.9 | below the threshold | 4.41 | 4.09 | 4.8 | below the threshold | below the threshold | below the threshold | below the threshold | below the threshold | below the threshold | 3.87 | 3.53 | below the threshold | 3.55 | PELESKESVL [SLC1A4, P43007] | pKd [21]: 3.91; pKd [22]: below the threshold; pKd [23]: below the threshold; pKd [24]: 4.4; pKd [25]: below the threshold; pKd [26]: below the threshold |
| below the threshold | below the threshold | 3.82 | below the threshold | 4.4 | 4.41 | below the threshold | 4.16 | below the threshold | below the threshold | 3.65 | below the threshold | below the threshold | below the threshold | below the threshold | below the threshold | 5.22 | below the threshold | below the threshold | below the threshold | SRPTKGPTLL [PLEKHH2, Q8IVE3] | pKd [21]: 3.7; pKd [22]: below the threshold; pKd [23]: below the threshold; pKd [24]: below the threshold; pKd [25]: below the threshold; pKd [26]: below the threshold |
| below the threshold | below the threshold | below the threshold | below the threshold | 4.48 | 3.8 | below the threshold | below the threshold | below the threshold | below the threshold | below the threshold | below the threshold | below the threshold | below the threshold | below the threshold | below the threshold | 3.94 | 3.47 | below the threshold | below the threshold | EEDTAEKDEL [HSPA5, P11021] | pKd [21]: 3.5; pKd [22]: below the threshold; pKd [23]: below the threshold; pKd [24]: 3.7; pKd [25]: below the threshold; pKd [26]: below the threshold |
